From patent publication US20240109937A1 (Johns Hopkins, published 2024) come the findings set out here.

Test [1] concerns the target T1, Peptidylprolyl isomerase A (PPIA), also known as cyclophilin A (CypA) (UniProt P62937 1-165).
T1 construct: Protein used for the in vitro KD/IC50 values
Put plainly: KD 'determined', method not stated; target not given, taken as CypA.

In test [2] the target is T1, Peptidylprolyl isomerase A (PPIA), also …. Put plainly: disruption of the AIF/Cyclophilin complex in living cells and in vitro; method not stated.
Test [3] shares this target. Put plainly: binding to CypA; method not stated.
For test [4] the target is unchanged. Put plainly: printed as 'disrupts the complex AIF/Cyclophilin with a KD'; method not stated.
Test [5] has the same target. Put plainly: printed as 'Disrupts the complex AIF/Cyclophilin with a KD'; method not stated.
The target in test [6] is Apoptosis-inducing factor (AIF) protein (UniProt O95831 122-613, limits assumed). Put plainly: printed as 'Disrupts the complex AIF/Cyclophilin with a KD'; method not stated; target taken as AIF.
Sequence of Apoptosis-inducing factor (AIF) protein (O95831 122-613 limits assumed): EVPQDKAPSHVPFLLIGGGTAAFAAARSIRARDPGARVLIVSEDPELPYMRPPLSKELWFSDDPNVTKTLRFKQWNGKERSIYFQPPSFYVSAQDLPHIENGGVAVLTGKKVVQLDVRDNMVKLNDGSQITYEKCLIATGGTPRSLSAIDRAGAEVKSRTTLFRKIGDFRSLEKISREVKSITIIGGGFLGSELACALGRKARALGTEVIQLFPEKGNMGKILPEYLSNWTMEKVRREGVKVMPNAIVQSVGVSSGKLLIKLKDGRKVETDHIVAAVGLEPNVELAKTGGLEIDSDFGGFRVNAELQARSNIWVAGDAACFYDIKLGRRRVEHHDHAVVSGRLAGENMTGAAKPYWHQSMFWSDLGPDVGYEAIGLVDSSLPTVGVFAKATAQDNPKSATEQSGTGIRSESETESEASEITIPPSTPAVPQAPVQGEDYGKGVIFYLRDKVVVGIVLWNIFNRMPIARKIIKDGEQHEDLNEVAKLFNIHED

Bridge positions count the residues as written; N and C are the ends. Square brackets hold non-standard residues; d marks the D form. Ends that are not written are not given here. Lys(N3) = [N-]=[N+]=NCCCC[C@H](N)C(=O)O; hArg = N=C(N)NCCCC[C@H](N)C(=O)O; Tle = CC(C)(C)[C@H](N)C(=O)O; Hpra = C#CCC[C@H](N)C(=O)O; Nle = CCCC[C@H](N)C(=O)O

T1 sequence (P62937 whole entry): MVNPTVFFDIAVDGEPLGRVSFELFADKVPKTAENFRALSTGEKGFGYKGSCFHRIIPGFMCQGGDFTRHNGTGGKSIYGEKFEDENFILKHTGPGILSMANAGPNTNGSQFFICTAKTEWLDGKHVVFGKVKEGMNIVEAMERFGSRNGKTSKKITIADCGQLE

B1: Cyclic peptide derived from Formula (I), X5-X6: L- Tle (peptide)
peptide: CIKLKL[Tle]RKVC
modifications: disulfide 1-11
notes: X stands for the non-natural residue
Turning to B1, the Kd (as a rule, the constant that tells how readily two partners part at equilibrium) in test [1] was 151 µM.

B2: Cyclic peptide derived from Formula (I), X5-X6: Tle-L (peptide)
peptide: CIKLK[Tle]LRKVC
modifications: disulfide 1-11
notes: as for B1
With B2, the Kd in test [1] was 147 µM.

B3: Cyclic peptide derived from Formula (I), X2: hR (peptide)
peptide: CI[hArg]LKDGRKVC
modifications: disulfide 1-11; also: Y1 can be H (free N-terminus), Y2 can be amino (C-terminal amide)
notes: Only the changed residues are printed; X stands for the non-natural residue
B3 gave a Kd in test [1] of 80.3 µM.

B4: Cyclic peptide derived from Formula (I), X5-X6: Nle -L (peptide)
peptide: CIKLK[Nle]LRKVC
modifications: disulfide 1-11
notes: as for B1
As for B4, the Kd in test [1] worked out at 30.7 µM. This Kd lies about 2.6-fold lower than the previous one.

B5: AIF (370-394) (peptide)
peptide: Ac-QSVGVSSGKLLIKLKDGRKVETDHI-NH2
notes: also called AIF mimetic peptide (amino acids 370-394)
In the case of B5, the IC50 (as a rule, the midpoint of a concentration-inhibition curve) in test [2] stood at 5 µM. Further, the Kd in test [3] is ~5 µM.

B6: Cyclic peptide derived from Formula (I), X5-X6: L-L (peptide)
peptide: CIKLKLLRKVC
modifications: disulfide 1-11
B6 registered a Kd in test [1] of 1.2 µM. This lies in the single-digit micromolar range.

B7: Cyclic peptide derived from Formula (I), X5-X6: L- Nle (peptide)
peptide: CIKLKL[Nle]RKVC
modifications: disulfide 1-11
notes: as for B1
In test [1], B7 returned a Kd of 23.9 µM.

B8: Cyclic peptide derived from Formula (I), X5-X6: Nle-Nle (peptide)
peptide: CIKLK[Nle][Nle]RKVC
modifications: disulfide 1-11
notes: as for B1
B8 returned an equilibrium dissociation constant (Kd) in test [1] of 22.9 µM. This Kd and that of the molecule before are within 1.5-fold of each other.

B9: Cyclic peptide derived from Formula (I), X5-X6: Tle-Tle (peptide)
peptide: CIKLK[Tle][Tle]RKVC
modifications: disulfide 1-11
notes: as for B1
As for B9, in test [1], the Kd was 13.6 µM.

B10: AIF (381-389) LLox (peptide)
peptide: Ac-CIKLKLLRKVC-NH2
modifications: disulfide 1-11
SMILES: CC[C@H](C)[C@@H]1NC(=O)[C@@H](NC(C)=O)CSSC[C@@H](C(N)=O)NC(=O)[C@H](C(C)C)NC(=O)[C@H](CCCCN)NC(=O)[C@H](CCCNC(=N)N)NC(=O)[C@H](CC(C)C)NC(=O)[C@H](CC(C)C)NC(=O)[C@H](CCCCN)NC(=O)[C@H](CC(C)C)NC(=O)[C@H](CCCCN)NC1=O
In the case of B10, the Kd in test [4] was ~1 µM.

B11: Cyclic peptide derived from Formula (I), X5-X6: L-I (peptide)
peptide: CIKLKLIRKVC
modifications: disulfide 1-11
As for B11, binding in test [1] was put at a Kd of 233 µM.

B12: Cyclic peptide derived from Formula (I), X5-X6: I-I (peptide)
peptide: CIKLKIIRKVC
modifications: disulfide 1-11
Turning to B12, in test [1], the Kd is 58.9 µM. This Kd lies about 4-fold lower than the previous one.

B13: Cyclic peptide derived from Formula (I), X5-X6: V-L (peptide)
peptide: CIKLKVLRKVC
modifications: disulfide 1-11
On to B13, for which binding in test [1] was characterised by a dissociation constant (Kd) of 37.6 µM.

B14: Cyclic peptide derived from Formula (I), X5-X6: V-V (peptide)
peptide: CIKLKVVRKVC
modifications: disulfide 1-11
For B14, in test [1], binding was characterised by a dissociation constant (Kd) of 268 µM.

B15: Cyclic peptide derived from Formula (I), X5-X6: L-V (peptide)
peptide: CIKLKLVRKVC
modifications: disulfide 1-11
Regarding B15, the Kd in test [1] came out at 7.57 µM.

B16: Cyclic peptide derived from Formula (I), X5-X6: I-L (peptide)
peptide: CIKLKILRKVC
modifications: disulfide 1-11
As for B16, in test [1], the Kd was 89.9 µM.

B17: AIF (370-394)-stapled peptides (peptide)
peptide: Ac-QSCGVSSG[Lys(N3)]LLCKLKDGRKV[Hpra]TDHI-NH2
modifications: disulfide 3-12; triazole 9-21
notes: also called stapled AIF (370-394) analog
As to B17, the dissociation constant Kd in test [5] is ~0.8 µM.

B18: AIF (381-389) ox (peptide)
peptide: Ac-CIKLKDGRKVC-NH2
modifications: disulfide 1-11
SMILES: CC[C@H](C)[C@@H]1NC(=O)[C@@H](NC(C)=O)CSSC[C@@H](C(N)=O)NC(=O)[C@H](C(C)C)NC(=O)[C@H](CCCCN)NC(=O)[C@H](CCCNC(=N)N)NC(=O)CNC(=O)[C@H](CC(=O)O)NC(=O)[C@H](CCCCN)NC(=O)[C@H](CC(C)C)NC(=O)[C@H](CCCCN)NC1=O
Consider B18, for which the Kd in test [4] was ~2 µM.

B19: CypA (55-69) (peptide)
peptide: Ac-RIIPGFMCQGGDFTR-NH2
For the molecule B19, the Kd in test [6] is ~6 µM.
